Measured values reported in patent US20160208274.

Biological target: fibrin (formed in the agarose plate from fibrinogen and thrombin)

B1: recombinant human tissue plasminogen activator (t-PA) from transgenic T1 tobacco seeds, with C-terminal 6xHis tag and KDEL (protein)
chain: SYQVICRDEKTQMIYQQHQSWLRPVLRSNRVEYCWCNSGRAQCHSVPVKSCSEPRCFNGGTCQQALYFSYFVCQCPEGFAGKCCEIDTRATCYEDQGISYRGTWSTAESGAECTNWNSSALAQKPYSGRRPDAIRLGLGNHNYCRNPDRDSKPWCYVFKAGKYSSEFCSTPACSEGNSDCYFGNGSAYRGTHSLTESGASCLPWNSMILIGKVYTAQNPSAQALGLGKHNYCRNPDGDAKPWCHVLKNRRLTWEYCDVPSCSTCGLRQYSQPQFRIKGGLFADIASHPWQAAIFAKHRRSPGERFLCGGILISSCWILSAAHCFQERFPPHHLTVILGRTYRVVPGEEEQKFEVEKYIVHKEFDDDTYDNDIALLQLKSDSSRCAQESSVVRTVCLPPADLQLPDWTECELSGYGKHEALSPFYSERLKEAHVRLYPSSRCTSQHLLNRTVTDNMLCAGDTRSGGPQANLHDACQGDSGGPLVCLNDGRMTLVGIISWGLGCGQKDVPGVYTKVTNYLDWIRDNMRPHHHHHHKDEL
Which “fibrin plate assay (fibrin degradation; lytic area on the fibrin plate)” value does the source give for B1 here?
The value was “recombinant t-PA from T1 seeds and DSPAα1 from T3 homologous seeds can degrade fibrin”.

B2: recombinant Desmodus rotundus salivary plasminogen activator alpha1 (DSPAα1) from transgenic T3 tobacco seeds, with C-terminal 6xHis tag and KDEL (protein)
chain: AYGVACKDEITQMTYRRQESWLRPEVRSKRVEHCQCDRGQARCHTVPVNSCSEPRCFNGGTCWQAVYFSDFVCQCPAGYTGKRCEVDTRATCYEGQGVTYRGTWSTAESRVECINWNSSLLTRRTYNGRMPDAFNLGLGNHNYCRNPNGAPKPWCYVIKAGKFTSESCSVPVCSKATCGLRKYKEPQLHSTGGLFTDITSHPWQAAIFAQNRRSSGERFLCGGILISSCWVLTAAHCFQESYLPDQLKVVLGRTYRVKPGEEEQTFKVKKYIVHKEFDDDTYNNDIALLQLKSDSPQCAQESDSVRAICLPEANLQLPDWTECELSGYGKHKSSSPFYSEQLKEGHVRLYPSSRCAPKFLFNKTVTNNMLCAGDTRSGEIYPNVHDACQGDSGGPLVCMNDNHMTLLGIISWGVGCGEKDVPGVYTKVTNYLGWIRDNMHLHHHHHHKDEL
B2 was tested. Which “fibrin plate assay (fibrin degradation; lytic area on the fibrin plate)” value did it give?
Its value is “recombinant t-PA from T1 seeds and DSPAα1 from T3 homologous seeds can degrade fibrin”.
